Measured values published in PMC6937246 (2019).

What was measured:
purified tubulin dimer [1] = test: SPR; VASH1 L226A/C169S
purified tubulin dimer [2] = test: SPR

Binder	Kd (purified tubulin dimer [1])	Kd (purified tubulin dimer [2])
VASH1-SVBP complex, VASH1 L226A (complex) chain 1: not shown chain 2: MDPPARKEKTKVKESVSRVEKAKQKSAQQELKQRQRAEIYALNRVMTELEQQQFDEFCKQMQPPGE	2100 nM	
VASH1^44–315-SVBP^1–66 heterodimer (complex) chain 1: not shown chain 2: MDPPARKEKTKVKESVSRVEKAKQKSAQQELKQRQRAEIYALNRVMTELEQQQFDEFCKQMQPPGE		320 nM
